Results as given in patent US20140206846A1.

Tests used:
[1] = molecular target: T1, human VEGF (human), P15692; test: Biacore; settings: bispecific antibody; chains VL:VH; remark: other sources report otherwise
T1 chain: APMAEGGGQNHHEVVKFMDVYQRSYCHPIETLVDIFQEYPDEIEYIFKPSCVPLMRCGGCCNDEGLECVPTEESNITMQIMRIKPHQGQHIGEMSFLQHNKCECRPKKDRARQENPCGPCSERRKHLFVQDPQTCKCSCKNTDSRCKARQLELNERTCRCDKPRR

[2] = molecular target: T1, human VEGF (human), P15692; test: Biacore SPR, Fab captured by anti-light chain antibody, VEGF as analyte; settings: remark: other sources report otherwise

koff [1]: 0.000738 s⁻¹
Kd [2]: 7.8 nM
B1: VH6L (bispecific antibody, V domains shown)
chain 1: NIQKTQSPSSLSASVGDRVTITCRALWHISSYLAWYQQKPGKAPKLLIYAASHLHYGVPSRFSGSGSGTDFTLTISSLQPEDFATYYCQQYSGLPYTFGQGTKVEIK
chain 2: YYQLVESGGGLVQPGGSLRLSCAADGFLFSGYAMSWIRQAPGKGLEWIGQISGSGGSTVYNYNVLGRFTISRDNSKNTLYLQMNSLRAEDTAVYYCARDTGYFDHWGQGTLVTVSS
